First the molecules themselves.
T1: human Chemokine like receptor 1 (human, UniProt Q99788 1-373)
T1 sequence (looked up): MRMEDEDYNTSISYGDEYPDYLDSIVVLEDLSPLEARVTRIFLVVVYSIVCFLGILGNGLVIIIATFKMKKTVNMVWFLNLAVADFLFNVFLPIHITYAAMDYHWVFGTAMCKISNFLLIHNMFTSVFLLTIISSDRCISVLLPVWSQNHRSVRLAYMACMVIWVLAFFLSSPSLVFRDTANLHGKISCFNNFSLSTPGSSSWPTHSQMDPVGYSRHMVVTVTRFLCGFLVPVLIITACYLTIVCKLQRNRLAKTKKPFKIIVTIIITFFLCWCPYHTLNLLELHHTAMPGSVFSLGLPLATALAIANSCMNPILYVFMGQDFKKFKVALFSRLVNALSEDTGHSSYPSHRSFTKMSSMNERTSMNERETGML

B1: YW-167 (peptide)
peptide: [dNMeY]F[NMeL]P[dS]Q[2Nal][dA][Tic]S-OH
modifications: N-terminus assumed
SMILES: CN[C@H](Cc1ccc(O)cc1)C(=O)N[C@@H](Cc1ccccc1)C(=O)N(C)[C@@H](CC(C)C)C(=O)N1CCC[C@H]1C(=O)N[C@H](CO)C(=O)N[C@@H](CCC(N)=O)C(=O)N[C@@H](Cc1ccc2ccccc2c1)C(=O)N[C@H](C)C(=O)N1Cc2ccccc2C[C@H]1C(=O)N[C@@H](CO)C(=O)O
B2: YW-100 (peptide)
peptide: [dY]F[NMeF]P[dS]QF[dA][Tic]S-OH
modifications: N-terminus assumed
SMILES: C[C@@H](NC(=O)[C@H](Cc1ccccc1)NC(=O)[C@H](CCC(N)=O)NC(=O)[C@@H](CO)NC(=O)[C@@H]1CCCN1C(=O)[C@H](Cc1ccccc1)N(C)C(=O)[C@H](Cc1ccccc1)NC(=O)[C@H](N)Cc1ccc(O)cc1)C(=O)N1Cc2ccccc2C[C@H]1C(=O)N[C@@H](CO)C(=O)O
B3: YW-190 (peptide)
peptide: [dY]F[NMeL]P[dS]QF[dA]XS-NH2
modifications: not fully specified (residue 9); printed as (D-Tyr)-Phe-(NMe-Leu)-Pro-(D-Ser)-Gln-Phe-(D-Ala)-Tic-Ser-NH2
B4: YW-166 (peptide)
peptide: [dY]F[NMeL]P[dS]QF[dA][Tic][NMeS]-OH
modifications: N-terminus assumed
SMILES: CC(C)C[C@@H](C(=O)N1CCC[C@H]1C(=O)N[C@H](CO)C(=O)N[C@@H](CCC(N)=O)C(=O)N[C@@H](Cc1ccccc1)C(=O)N[C@H](C)C(=O)N1Cc2ccccc2C[C@H]1C(=O)N(C)[C@@H](CO)C(=O)O)N(C)C(=O)[C@H](Cc1ccccc1)NC(=O)[C@H](N)Cc1ccc(O)cc1
B5: YW-172 (peptide)
peptide: [dY]F[NMeL]P[dS]QF[dA][Tic][NHoSer]-OH
modifications: reading uncertain; also: printed as (D-Tyr)-Phe-(NMe-Leu)-Pro-(D-Ser)-Gln-Phe-(D-Ala)-Tic-(NHoSer)
B6: YW-163 (peptide)
peptide: [dNMeY]F[NMeL]P[dS]QF[dA][Tic]S-OH
modifications: N-terminus assumed
SMILES: CN[C@H](Cc1ccc(O)cc1)C(=O)N[C@@H](Cc1ccccc1)C(=O)N(C)[C@@H](CC(C)C)C(=O)N1CCC[C@H]1C(=O)N[C@H](CO)C(=O)N[C@@H](CCC(N)=O)C(=O)N[C@@H](Cc1ccccc1)C(=O)N[C@H](C)C(=O)N1Cc2ccccc2C[C@H]1C(=O)N[C@@H](CO)C(=O)O
B7: YW-165 (peptide)
peptide: [dY]F[NMeL]P[dS]Q[1Nal][dA][Tic]S-OH
modifications: N-terminus assumed
SMILES: CC(C)C[C@@H](C(=O)N1CCC[C@H]1C(=O)N[C@H](CO)C(=O)N[C@@H](CCC(N)=O)C(=O)N[C@@H](Cc1cccc2ccccc12)C(=O)N[C@H](C)C(=O)N1Cc2ccccc2C[C@H]1C(=O)N[C@@H](CO)C(=O)O)N(C)C(=O)[C@H](Cc1ccccc1)NC(=O)[C@H](N)Cc1ccc(O)cc1
B8: YW-168 (peptide)
peptide: [dNMeY]F[NMeL]P[dS]Q[1Nal][dA][Tic]S-OH
modifications: N-terminus assumed
SMILES: CN[C@H](Cc1ccc(O)cc1)C(=O)N[C@@H](Cc1ccccc1)C(=O)N(C)[C@@H](CC(C)C)C(=O)N1CCC[C@H]1C(=O)N[C@H](CO)C(=O)N[C@@H](CCC(N)=O)C(=O)N[C@@H](Cc1cccc2ccccc12)C(=O)N[C@H](C)C(=O)N1Cc2ccccc2C[C@H]1C(=O)N[C@@H](CO)C(=O)O
B9: YW-164 (peptide)
peptide: [dY]F[NMeL]P[dS]Q[2Nal][dA][Tic]S-OH
modifications: N-terminus assumed
SMILES: CC(C)C[C@@H](C(=O)N1CCC[C@H]1C(=O)N[C@H](CO)C(=O)N[C@@H](CCC(N)=O)C(=O)N[C@@H](Cc1ccc2ccccc2c1)C(=O)N[C@H](C)C(=O)N1Cc2ccccc2C[C@H]1C(=O)N[C@@H](CO)C(=O)O)N(C)C(=O)[C@H](Cc1ccccc1)NC(=O)[C@H](N)Cc1ccc(O)cc1
B10: YW-101 (peptide)
peptide: [dY]F[NMehLeu]P[dS]QF[dA][Tic]S-OH
modifications: N-terminus assumed
SMILES: CC(C)CC[C@@H](C(=O)N1CCC[C@H]1C(=O)N[C@H](CO)C(=O)N[C@@H](CCC(N)=O)C(=O)N[C@@H](Cc1ccccc1)C(=O)N[C@H](C)C(=O)N1Cc2ccccc2C[C@H]1C(=O)N[C@@H](CO)C(=O)O)N(C)C(=O)[C@H](Cc1ccccc1)NC(=O)[C@H](N)Cc1ccc(O)cc1
B11: YW-171 (peptide)
peptide: [dY]F[NMeL]P[dS]QF[dA][Tic][hSer]-OH
modifications: N-terminus assumed
SMILES: CC(C)C[C@@H](C(=O)N1CCC[C@H]1C(=O)N[C@H](CO)C(=O)N[C@@H](CCC(N)=O)C(=O)N[C@@H](Cc1ccccc1)C(=O)N[C@H](C)C(=O)N1Cc2ccccc2C[C@H]1C(=O)N[C@@H](CCO)C(=O)O)N(C)C(=O)[C@H](Cc1ccccc1)NC(=O)[C@H](N)Cc1ccc(O)cc1
B12: YW-105 (peptide)
peptide: [dY][NMeF][NMeL]P[dS]QF[dA][Tic]S-OH
modifications: N-terminus assumed
SMILES: CC(C)C[C@@H](C(=O)N1CCC[C@H]1C(=O)N[C@H](CO)C(=O)N[C@@H](CCC(N)=O)C(=O)N[C@@H](Cc1ccccc1)C(=O)N[C@H](C)C(=O)N1Cc2ccccc2C[C@H]1C(=O)N[C@@H](CO)C(=O)O)N(C)C(=O)[C@H](Cc1ccccc1)N(C)C(=O)[C@H](N)Cc1ccc(O)cc1

Square brackets hold non-standard residues; d marks the D form. Ends that are not written are not given here. * marks the point of attachment. Pro(diF) = difluoro-proline, as coded in the source; DiMe = N,N-dimethyl (N-terminal dimethylation); PEG8 = NCCOCCOCCOCCOCCOCCOCCOCCOCCC(=O)O; dOic = O=C(O)[C@H]1C[C@H]2CCCC[C@H]2N1; 1Nal = N[C@@H](Cc1cccc2ccccc12)C(=O)O; 2Nal = N[C@@H](Cc1ccc2ccccc2c1)C(=O)O; dNMeY = CN[C@H](Cc1ccc(O)cc1)C(=O)O; Hydrocinnamoyl = O=C(CCc1ccccc1)*; NMehLeu = CN[C@@H](CCC(C)C)C(=O)O; Palmitoyl = CCCCCCCCCCCCCCCC(=O)*; NMeF = CN[C@@H](Cc1ccccc1)C(=O)O; Myristoyl = CCCCCCCCCCCCCC(=O)*; Tic = O=C(O)[C@@H]1Cc2ccccc2CN1; dTic = O=C(O)[C@H]1Cc2ccccc2CN1; NMeL = CN[C@@H](CC(C)C)C(=O)O; Lauroyl = CCCCCCCCCCCC(=O)*; NHoSer = not defined here; NMeS = CN[C@@H](CO)C(=O)O; hSer = N[C@@H](CCO)C(=O)O; Hexanoyl = CCCCCC(=O)*; βAla = NCCC(=O)O

The source of these data is patent US20210403506A1 (XDCEXPLORER SHANGHAI, published 2021).

The assay deals with T1, human Chemokine like receptor 1. In words: cell-based or functional assay.
In the case of {Lauroyl-PEG8}-[βAla][βAla][dNMeY]F[NMeL]P[dS]Q[2Nal][dA][Tic][NMeS] [YW-181], the “EC50 (µM), activation of Tango CMKLR1-bla U2OS cells” value (“EC50 (µM), activation” below) came out at 0.0022 µM.
DiMe-[dY]F[NMeL]P[dS]QF[dA][Tic]S [YW-192]: the “EC50 (µM), activation” value was 0.0026 µM.
On to {Myristoyl-PEG8}-[βAla][βAla][dNMeY]F[NMeL]P[dS]Q[2Nal][dA][Tic][NMeS] [YW-180], for which the “EC50 (µM), activation” value stood at 0.0014 µM.
Under B1 stands 0.0008 µM.
The figure for {Palmitoyl-PEG8}-GG[dNMeY]F[NMeL]P[dS]Q[2Nal][dA][Tic][NMeS] [YW-178] is 0.0021 µM.
Under {Palmitoyl-PEG8}-[βAla][βAla][dNMeY]F[NMeL]P[dS]Q[2Nal][dA][Tic][NMeS] [YW-179] stands 0.0021 µM.
Consider Hexanoyl-[dY]F[NMeL]P[dS]QF[dA][Tic]S [YW-193], for which the “EC50 (µM), activation” value amounted to 0.0014 µM.
For B2, the “EC50 (µM), activation” value came to 0.042 µM.
The figure for Hydrocinnamoyl-[dY]F[NEtL]P[dS]QF[dA][Tic]S [YW-185] is 0.0059 µM; for B3 it is 0.0027 µM; for B4 it is 0.005 µM.
The figure for [dY]F[NMeL]P[dHoSer]QF[dA][Tic]S-OH [YW-175] is 0.091 µM; for [dY]F[NMeL]P[dS]QF[dA][dTic][NMeS] [YW-182] it is 0.041 µM.
Consider [dY]F[NMeL]P[dS]QF[dA][Tic][NMeHoSer]-OH [YW-177], for which the “EC50 (µM), activation” value turned out to be 0.025 µM.
With B5, the “EC50 (µM), activation” value amounted to 0.0058 µM.
Take B6: the “EC50 (µM), activation” value amounted to 0.0022 µM.
As to B7, the “EC50 (µM), activation” value worked out at 0.0015 µM.
As to B8, the “EC50 (µM), activation” value is 0.0012 µM.
For Hydrocinnamoyl-[dY]F[NPrL]P[dS]QF[dA][Tic]S [YW-186], the “EC50 (µM), activation” value came to 0.011 µM.
On to [dY]F[NMeL][Pro(diF)][dS]QF[dA][Tic]S-OH [YW-174], for which the “EC50 (µM), activation” value was 0.0012 µM.
For [dY]F[NMeL]P[dS]QF[dA][dOic]S-OH [YW-176], the “EC50 (µM), activation” value was 0.0038 µM.
Turning to {2‑cyclohexylacetyl}-[dY]F[NMeL]P[dS]QF[dA][Tic]S [YW-194], the “EC50 (µM), activation” value was 0.0012 µM.
The figure for B9 is 0.0011 µM; for B10 it is 0.0029 µM; for [dY]F[NPrL]P[dS]QF[dA][Tic]S [YW-184] it is 0.016 µM.
As to B11, the “EC50 (µM), activation” value came out at 0.029 µM.
Under B12 stands 0.0106 µM; under [dY]F[NEtL]P[dS]QF[dA][Tic]S [YW-183], 0.0092 µM.
